In assay [1] the target is PKR (Homo sapiens) (UniProt P19525). Put plainly: sedimentation equilibrium. The settings on record: cited from earlier work.
The target is the same in assay [2]. The settings on record: cited from earlier work.
The target of assay [3] is PKR kinase kinase domain (Homo sapiens) (UniProt P19525). The settings on record: cited from earlier work.
Another assay deals with T1, PKR (Homo sapiens, UniProt P19525).
T1 chain: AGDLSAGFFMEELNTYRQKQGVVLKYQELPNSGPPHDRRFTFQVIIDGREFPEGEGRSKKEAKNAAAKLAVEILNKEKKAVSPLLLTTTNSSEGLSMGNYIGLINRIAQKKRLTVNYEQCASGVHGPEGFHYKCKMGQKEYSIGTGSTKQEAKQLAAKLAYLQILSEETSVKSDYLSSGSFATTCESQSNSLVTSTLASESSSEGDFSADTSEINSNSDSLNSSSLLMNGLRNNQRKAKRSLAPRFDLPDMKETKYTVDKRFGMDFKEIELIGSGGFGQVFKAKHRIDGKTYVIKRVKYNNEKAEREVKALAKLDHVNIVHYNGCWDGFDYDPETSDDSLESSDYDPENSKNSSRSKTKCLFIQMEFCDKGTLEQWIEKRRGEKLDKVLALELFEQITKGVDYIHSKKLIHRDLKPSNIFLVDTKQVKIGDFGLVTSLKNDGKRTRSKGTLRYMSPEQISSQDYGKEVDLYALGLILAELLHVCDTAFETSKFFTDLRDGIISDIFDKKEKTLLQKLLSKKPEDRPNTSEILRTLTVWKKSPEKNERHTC
The assay is described as follows: sedimentation equilibrium.

Read-outs that look alike come from different tables or passages of the source.

Regarding PKR (from UniProt P19525), the dissociation constant (Kd) (in general, a measure of binding affinity in units of concentration) with PKR (Homo sapiens) [1] is 450 µM; with PKR (Homo sapiens) [2], 500 µM.

Consider “PKR second dsRBD dsRBD2 (from UniProt P19525)”, for which the equilibrium dissociation constant (Kd) in assay [3] is 250 µM.

B1: PKR (protein)
chain: AGDLSAGFFMEELNTYRQKQGVVLKYQELPNSGPPHDRRFTFQVIIDGREFPEGEGRSKKEAKNAAAKLAVEILNKEKKAVSPLLLTTTNSSEGLSMGNYIGLINRIAQKKRLTVNYEQCASGVHGPEGFHYKCKMGQKEYSIGTGSTKQEAKQLAAKLAYLQILSEETSVKSDYLSSGSFATTCESQSNSLVTSTLASESSSEGDFSADTSEINSNSDSLNSSSLLMNGLRNNQRKAKRSLAPRFDLPDMKETKYTVDKRFGMDFKEIELIGSGGFGQVFKAKHRIDGKTYVIKRVKYNNEKAEREVKALAKLDHVNIVHYNGCWDGFDYDPETSDDSLESSDYDPENSKNSSRSKTKCLFIQMEFCDKGTLEQWIEKRRGEKLDKVLALELFEQITKGVDYIHSKKLIHRDLKPSNIFLVDTKQVKIGDFGLVTSLKNDGKRTRSKGTLRYMSPEQISSQDYGKEVDLYALGLILAELLHVCDTAFETSKFFTDLRDGIISDIFDKKEKTLLQKLLSKKPEDRPNTSEILRTLTVWKKSPEKNERHTC
modifications: K371pAzF labeled with Alexa Fluor 488-DIBO
B1: in the assay with PKR, the equilibrium dissociation constant (Kd) stood at 1260 µM.

B2: PKR (protein)
chain: AGDLSAGFFMEELNTYRQKQGVVLKYQELPNSGPPHDRRFTFQVIIDGREFPEGEGRSKKEAKNAAAKLAVEILNKEKKAVSPLLLTTTNSSEGLSMGNYIGLINRIAQKKRLTVNYEQCASGVHGPEGFHYKCKMGQKEYSIGTGSTKQEAKQLAAKLAYLQILSEETSVKSDYLSSGSFATTCESQSNSLVTSTLASESSSEGDFSADTSEINSNSDSLNSSSLLMNGLRNNQRKAKRSLAPRFDLPDMKETKYTVDKRFGMDFKEIELIGSGGFGQVFKAKHRIDGKTYVIKRVKYNNEKAEREVKALAKLDHVNIVHYNGCWDGFDYDPETSDDSLESSDYDPENSKNSSRSKTKCLFIQMEFCDKGTLEQWIEKRRGEKLDKVLALELFEQITKGVDYIHSKKLIHRDLKPSNIFLVDTKQVKIGDFGLVTSLKNDGKRTRSKGTLRYMSPEQISSQDYGKEVDLYALGLILAELLHVCDTAFETSKFFTDLRDGIISDIFDKKEKTLLQKLLSKKPEDRPNTSEILRTLTVWKKSPEKNERHTC
modifications: K261pAzF labeled with Alexa Fluor 488-DIBO
B2 came in with a Kd with PKR of 94 µM.

The values above are taken from paper PMC4641775 (2016).
